Source: US20090053213A1 (MorphoSys, published 2009)
Substitutions are numbered along the chain they refer to. One block for each binder: values may come before it.

Key:
human GM-CSF [1] = target: T1, human GM-CSF (human, UniProt P04141 18-144); experiment: cell-based or functional assay
human GM-CSF [2] = target: T1, human GM-CSF; experiment: solution equilibrium titration (SET, ECL/BioVeris), Fab with human GM-CSF (Leucomax) in solution
human GM-CSF [3] = target: T1, human GM-CSF; experiment: SPR (Biacore), Fab over immobilized recombinant human GM-CSF (Peprotech), F1 chip; affinity estimated from off-rates
Description: A respective amount of HSA was immobilized on the reference flow cell. […] Fab was applied in concentration series of 6.3-200 nM at a flow rate of 20 μl/min.

human GM-CSF [4] = target: T1, human GM-CSF; experiment: FACS receptor inhibition assay: inhibition of binding of 0.5 µg/ml biotinylated GM-CSF to GM-CSF receptor alpha on CHO-GMRa#11 cells
Description: (§1) All stainings were performed in round bottom 96-well culture plates (Nalge Nunc) with 1-5×10⁵ cells per well. […] Cells were then washed once with 150 μl FACS buffer/well and taken up in 100 μl phycoerythrin-labeled streptavidin (BD Biosciences Pharmingen) which has been diluted 1:400 in FACS buffer. […] IC₅₀ values were determined from the dose response curves obtained using GraphPad Prism v3.03 software applying a non-linear regression curve fit.
(§2) IC₅₀ values were determined from the dose response curves obtained using GraphPad Prism v3.03 software applying a non-linear regression curve fit.

human GM-CSF [5] = target: T1, human GM-CSF; experiment: FACS receptor inhibition assay: antibody pre-incubated with 0.5 µg/ml biotinylated GM-CSF, binding to GM-CSF receptor alpha on CHO-GMRa#11 cells
Description: as §1, §2

human GM-CSF [6] = target: T1, human GM-CSF; experiment: cell-based or functional assay; remark: listed apart in the source
human GM-CSF [7] = target: T1, human GM-CSF; experiment: cell-based or functional assay; remark: listed apart in the source

T1 sequence (P04141 18-144): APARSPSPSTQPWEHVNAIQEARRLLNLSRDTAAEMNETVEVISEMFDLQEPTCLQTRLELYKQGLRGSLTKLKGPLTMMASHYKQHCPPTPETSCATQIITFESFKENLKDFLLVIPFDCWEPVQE

IC50 (pM) in TF-1 proliferation assay, human GM-CSF 0.25 ng/ml (human GM-CSF [1]): 2010 pM | IC50 x-fold improved compared to BVD2-21C11, TF-1 proliferation assay (human GM-CSF [1]): 3.2 fold | IC50 x-fold improved compared to Mab215, TF-1 proliferation assay (human GM-CSF [1]): 2.1 fold | Kd (human GM-CSF [2]): 6 pM | Kd (human GM-CSF [3]): 55 pM | % inhibition at 5 µg/ml antibody (human GM-CSF [4]): ~75% | IC50 (human GM-CSF [5]): 26000 pM
B1: MOR04252 Fab (Fab, V domains shown)
VH: QVQLVESGGGLVQPGGSLRLSCAASGFTFSSYWMNWVRQAPGKGLEWVSGIENKYAGGATYYAASVKGRFTISRDNSKNTLYLQMNSLRAEDTAVYYCARGFGTDFWGQGTLVTVSS
VL: DIELTQPPSVSVAPGQTARISCSGDSIGKKYAYWYQQKPGQAPVLVIYKKRPSGIPERFSGSNSGNTATLTISGTQAEDEADYYCSSWDSTGLVFGGGTKLTVLG
notes: Fab with FLAG and 6xHis tags

fold improvement of IC50 in TF-1 proliferation assay compared to parental MOR03929 (human GM-CSF [6]): > 2000 fold | IC50 (pM) in TF-1 proliferation assay, human GM-CSF 0.25 ng/ml (human GM-CSF [1]): 82 pM | IC50 x-fold improved compared to BVD2-21C11, TF-1 proliferation assay (human GM-CSF [1]): 80 fold | IC50 x-fold improved compared to Mab215, TF-1 proliferation assay (human GM-CSF [1]): 52.6 fold | Kd (human GM-CSF [2]): 1.1 pM | Kd (human GM-CSF [3]): 19 pM | % inhibition at 5 µg/ml antibody (human GM-CSF [4]): ~75% | IC50 (human GM-CSF [5]): 24000 pM
B2: MOR04350 Fab (Fab, V domains shown)
VH: B1 VH with Y55R, Y61F
VL: B1 VL with S87A, D89G, S90D, T91K, L93M
notes: X-cloned Fab (VH of MOR04287 x VL of MOR04302) with FLAG and 6xHis tags

IC50 (pM) in TF-1 proliferation assay, human GM-CSF 0.25 ng/ml (human GM-CSF [1]): 3380 pM | IC50 x-fold improved compared to BVD2-21C11, TF-1 proliferation assay (human GM-CSF [1]): 1.9 fold | IC50 x-fold improved compared to Mab215, TF-1 proliferation assay (human GM-CSF [1]): 1.3 fold | Kd (human GM-CSF [2]): 17.9 pM | % inhibition at 5 µg/ml antibody (human GM-CSF [4]): ~75% | IC50 (human GM-CSF [5]): 25000 pM
B3: MOR04287 Fab (Fab, V domains shown)
VH: B1 VH with Y55R, Y61F
VL: B1 VL
notes: Fab with FLAG and 6xHis tags

fold improvement of IC50 in TF-1 proliferation assay compared to parental MOR03929 (human GM-CSF [6]): > 2000 fold | IC50 (pM) in TF-1 proliferation assay, human GM-CSF 0.25 ng/ml (human GM-CSF [1]): 56 pM | IC50 x-fold improved compared to BVD2-21C11, TF-1 proliferation assay (human GM-CSF [1]): 117 fold | IC50 x-fold improved compared to Mab215, TF-1 proliferation assay (human GM-CSF [1]): 77.1 fold | Kd (human GM-CSF [2]): 2.8 pM | Kd (human GM-CSF [3]): 21 pM | % inhibition at 5 µg/ml antibody (human GM-CSF [4]): ~75% | IC50 (human GM-CSF [5]): 26000 pM
B4: MOR04354 Fab (Fab, V domains shown)
VH: B1 VH with N53S, Y55W, S65G
VL: B1 VL with S87A, D89G, S90D, T91K, L93M
notes: X-cloned Fab (VH of MOR04290 x VL of MOR04302) with FLAG and 6xHis tags

IC50 (pM) in TF-1 proliferation assay, human GM-CSF 0.25 ng/ml (human GM-CSF [1]): 696 pM | IC50 x-fold improved compared to BVD2-21C11, TF-1 proliferation assay (human GM-CSF [1]): 9.4 fold | IC50 x-fold improved compared to Mab215, TF-1 proliferation assay (human GM-CSF [1]): 6.2 fold | Kd (human GM-CSF [2]): 11.1 pM | Kd (human GM-CSF [3]): 122 pM | % inhibition at 5 µg/ml antibody (human GM-CSF [4]): ~75% | IC50 (human GM-CSF [5]): 27000 pM
B5: MOR04290 Fab (Fab, V domains shown)
VH: B1 VH with N53S, Y55W, S65G
VL: B1 VL
notes: Fab with FLAG and 6xHis tags

IC50 (pM) in TF-1 proliferation assay, human GM-CSF 0.25 ng/ml (human GM-CSF [1]): 10700 pM | Kd (human GM-CSF [2]): 63.5 pM | Kd (human GM-CSF [3]): 174 pM | % inhibition at 5 µg/ml antibody (human GM-CSF [4]): ~75% | IC50 (human GM-CSF [5]): 24000 pM
B6: MOR04302 Fab (Fab, V domains shown)
VH: QVQLVESGGGLVQPGGSLRLSCAASGFTFSSYWMNWVRQAPGKGLEWVSGISYSGSETYYADSVKGRFTISRDNSKNTLYLQMNSLRAEDTAVYYCARGFGTDFWGQGTLVTVSS
VL: B1 VL with S87A, D89G, S90D, T91K, L93M
notes: Fab with FLAG and 6xHis tags

IC50 (pM) in TF-1 proliferation assay, human GM-CSF (human GM-CSF [7]): 17300 pM | Kd (human GM-CSF [2]): 113 pM
B7: MOR04283 Fab (Fab, V domains shown)
VH: QVQLVQSGAEVKKPGSSVKVSCKASGGTFNSFLISWVRQAPGQGLEWMGAISPWDGVTGYAQKFQGRVTITADESTSTAYMELSSLRSEDTAVYYCARKFISDSWGQGTLVTVSS
VL: DIQMTQSPSSLSASVGDRVTITCRASQTINNYLNWYQQKPGKAPKLLIYTASNLQSGVPSRFSGSGSGTDFTLTISSLQPEDFAVYYCQQYSGSPMTFGQGTKVEIKR
notes: Fab with FLAG and 6xHis tags

IC50 (pM) in TF-1 proliferation assay, human GM-CSF (human GM-CSF [7]): 14000 pM | Kd (human GM-CSF [2]): 49.2 pM
B8: MOR04297 Fab (Fab, V domains shown)
VH: B7 VH with A50G, S52I, W54I, D55F, V57T, T58A, G59N
VL: B7 VL with V85T, G93W, S94V, M96H
notes: Fab with FLAG and 6xHis tags

IC50 (pM) in TF-1 proliferation assay, human GM-CSF (human GM-CSF [7]): 80 pM | Kd (human GM-CSF [2]): 4.9 pM
B9: MOR04342 Fab (Fab, V domains shown)
VH: B7 VH
VL: B7 VL with V85T, G93W, S94V, M96H
notes: X-cloned Fab (VH of MOR04283 x VL of MOR04297) with FLAG and 6xHis tags

IC50 (pM) in TF-1 proliferation assay, human GM-CSF 0.25 ng/ml (human GM-CSF [1]): 463 pM | IC50 x-fold improved compared to BVD2-21C11, TF-1 proliferation assay (human GM-CSF [1]): 14.2 fold | IC50 x-fold improved compared to Mab215, TF-1 proliferation assay (human GM-CSF [1]): 9.3 fold | Kd (human GM-CSF [2]): 7.4 pM | Kd (human GM-CSF [3]): 70 pM | % inhibition at 5 µg/ml antibody (human GM-CSF [4]): ~100% | IC50 (human GM-CSF [5]): 53000 pM
B10: MOR04251 Fab (Fab, V domains shown)
VH: QVQLVESGGGLVQPGGSLRLSCAASGFTFSSHWMSWVRQAPGKGLEWVSNIWRGPYIYYADSVKGRFTISRDNSKNTLYLQMNSLRAEDTAVYYCARFQGYGGGFDYWGQGTLVTVSS
VL: DIELTQPPSVSVAPGQTARISCSGDNLPGKYVHWYQQKPGQAPVLVIYYDSNRPSGIPERFSGSNSGNTATLTISGTQAEDEADYYCQSRTQTTIVFGGGTKLTVLG
